{"source": "patent US20100009390A1", "about": "“MUTANT ANTIBODIES WITH HIGH AFFINITY FOR EGFR” (THE REGENTS OF THE UNIVERSITY OF CALIFORNIA, priority 2008, published 2010)", "key": {"MDAMB468 cells": {"test_system": "MDAMB468 cells", "test": "Binding specificity of scFv by flow cytometry", "parameters": "species or system Human", "details": "MDAMB468, 1×10^6-3×10^6 EGFR/cell"}, "biotinylated EGFR-ECD": {"biological_target": "T1, biotinylated EGFR-ECD (Homo sapiens, UniProt P00533)", "T1 construct": "Recombinant EGFR-ECD was expressed in HEK293 cells; biotin (chemical label, NHS-sulfo-LC-biotin on amines); made in house; host or cells: HEK293 cells", "test": "Yeast-displayed scFv affinity for biotinylated EGFR-ECD by flow cytometry", "type": "binding", "details": "concentrations as high as 8 μM", "protocol": "Generally, six to eight different concentrations of biotinylated EGFR were used to span a range of concentrations from ten times above to ten times below the KD. Incubation volumes, times and yeast numbers were chosen to ensure that the studies were done in at least fivefold antigen excess and that equilibrium had been achieved (Razai et al. (2005) J. Mol. Biol. 351: 158-169). For anti-EGFR scFv, […] in 50 μl were incubated with biotinylated EGFR-ECD for 1 h at room temperature. […] Only yeast displaying scFv (as determined by binding of SV5 mAb) were gated for affinity measurements."}, "MDAMB231 cells": {"test_system": "MDAMB231 cells", "test": "Uptake of EGFR immunoliposomes into cells of lower EGFR density", "type": "cell-based, human", "details": "all scFv densities studied; 480,000 EGFR/cell", "protocol": "(§1) scFv-mediated internalization of fluorescent immunoliposomes was analyzed and quantified by microscopy and flow cytometry. C10 scFv fragments were inserted into liposomes at ratios of 5, 10, 15, 30 and 60 μg scFv/μmol phospholipid (Mamot et al. (2003) Cancer Res. 63: 3154-3161). scFv densities of 16, 32, 48, 96 and 192 scFv/liposome were calculated on the basis of the molecular mass of scFv (26 kDa) and the approximate number of phospholipid molecules/liposome (80,000). The conjugation technology for scFv to Mal-PEG-DSPE is remarkably reproducible with an efficiency of 77.3(±3.1) % (range 75-82% over six batches) (Nellis et al. (2005) Biotechnol. Prog. 21: 205-220). […] For microscopy studies, 150,000 cells were incubated with 50 μM PL of untargeted and EGFR-targeted ILs labeled with DiIC18(3)-DS in a 12-well plate for 2 h at 37° C., followed by washing with PBS and further incubation at 37° C. for 2 h. The cells were then analyzed by using an inverted fluorescence microscope (Nikon Eclipse, TE300) with a 540/25 nm band-pass filter for excitation and a long-pass filter at 565 nm for emission. For quantitative uptake of immunoliposomes, 250,000 cells were incubated with EGFR-targeted ILs labeled with ADS645 in a six-well plate for 2 h at 37° C., washed with PBS, removed in trypsin solution and fluorescence quantified with a FACSAria instrument (Beckton Dickinson). To determine the effect of EGF competition on internalization of EGFR-targeted ILs, IL internalization was quantified as described above, except that 50 μM targeted ILs and cells were incubated with EGF concentrations ranging from 0.2-25 nM. ANOVA (analysis of variance) was used to analyze the statistical differences of the quantified uptake.\nTo determine the impact of receptor density on IL uptake, we measured the uptake of the different ILs into MDAMB231 cells which express 480,000 EGFR/cell as determined by flow cytometry using Quantum Simply Cellular anti-Human IgG beads (Bangs Laboratories Inc.). […] Uptake into MDAMB231 cells increased with increasing scFv density, reaching a plateau at an IL scFv density of 74 scFv/IL for P2/4 scFv and at 37 scFv/IL for 2224 scFv (FIG. 6C)."}, "[1]": {"biological_target": "T2, EGFR-expressing A431 cells (Homo sapiens, UniProt P00533)", "T2 construct": "host or cells: A431 cells", "details": "Heitner et al. (2001); read-out: KD of C10 scFv previously measured on EGFR-expressing tumor cells; cited from earlier work"}, "[2]": {"test_system": "EGFR-over-expressing MDAMB468 cells", "test": "Internalization/uptake of anti-EGFR immunoliposomes (microscopy, flow cytometry)", "type": "cell-based, Human", "protocol": "as §1"}, "MDAMB453 cells": {"test_system": "MDAMB453 cells", "test": "Binding specificity of scFv by flow cytometry", "details": "MDAMB453, only 10^4 EGFR/cell"}, "parental NR6 cells": {"test_system": "parental NR6 cells", "test": "Binding specificity of scFv by flow cytometry", "details": "NR6, EGFR negative", "protocol": "(§2) The binding of C10 scFv and C10 mutants to EGFR (vIII) stably transfected NR6M cells and parental NR6 cells was also measured."}, "[3]": {"biological_target": "T3, EGFR (vIII) stably transfected NR6M cells (Homo sapiens, UniProt P00533, DELINS30-297G)", "T3 construct": "expressed in transfected cells; host or cells: NR6M cells (NR6 stably transfected with EGFR (vIII)), gift of Dr Daryl D Bigner", "test": "Binding specificity of scFv by flow cytometry", "protocol": "as §2"}, "A431 cells": {"biological_target": "T4, A431 cells (Homo sapiens, UniProt P00533)", "T4 construct": "endogenous in cells; host or cells: A431 cells", "test": "Binding specificity of scFv by flow cytometry", "details": "A431, 1×10^6-3×10^6 EGFR/cell"}, "[4]": {"biological_target": "T5, MDAMB468 cells expressing EGFR (Homo sapiens, UniProt P00533)", "T5 construct": "Human breast cancer MDAMB468 cells expressing EGFR; endogenous in cells; host or cells: MDAMB468 breast carcinoma cells", "test": "Immunoliposome binding affinity for cells expressing EGFR (flow cytometry)", "details": "read-out: Apparent KD of immunoliposomes", "protocol": "Human breast cancer MDAMB468 cells expressing EGFR were grown to 80-90% confluence in L15 medium supplemented with 10% FBS and harvested by trypsinization. ILs labeled with DiIC18(3)-DS were incubated overnight with 10^4 cells at concentrations of IL ranging from 0.31-2.5 nM. The concentration of IL was converted from the concentration of phospholipid on the basis of the approximate number of phospholipid molecules per liposome (80,000). Cell binding was performed at 4° C. in FACS buffer in adequate volume to ensure a fivefold excess of ILs and that the reaction had come to equilibrium. After two washes with 200 μl of FACS buffer, the amount of cell-bound ILs was quantified by flow cytometry in a FACS LSRII (Becton Dickinson). Data analysis was the same as for the measurement of scFv KD."}}, "note": "“Also recorded” adds a separate entry of the source. Where two headings read alike, the source gives them in different places."}
{"molecule": "C10: parental (wild-type) internalizing anti-EGFR human scFv from a non-immune phage antibody library; SEQ ID NO:1 (protein, Variable chain of single chain antibody.) scFv: EVQLVQSGAEVKKPGSSVKVSCKASGGTFSSYAISWVRQAPGQGLEWMGGIIPIFGTANYAQKFQGRVTITADESTSTAYMELSSLRSEDTAVYYCAREEGPYCSSTSCYGAFDIWGQGTLVTVSS", "values": [{"measurement": "scFv binding/staining of cells", "setting": "MDAMB468 cells", "result": "stained"}, {"measurement": "binding of yeast-displayed scFv to biotinylated recombinant EGFR", "setting": "biotinylated EGFR-ECD", "result": "minimal binding"}, {"measurement": "IL uptake into MDAMB231 cells compared to A431 cells", "setting": "MDAMB231 cells", "result": "significantly less uptake"}, {"measurement": "Kd", "setting": "[1]", "result": 217, "unit": "nM"}, {"measurement": "endocytosis of ILs by fluorescence microscopy", "setting": "[2]; 74 scFv/liposome, MDAMB468", "result": "endocytosed efficiently"}, {"measurement": "IL uptake compared to ILs from higher affinity scFv", "setting": "[2]; scFv densities of 74 scFv/liposome or less", "result": "less uptake"}, {"measurement": "scFv binding/staining of cells", "setting": "MDAMB453 cells", "result": "did not stain"}, {"measurement": "scFv binding/staining of cells", "setting": "parental NR6 cells", "result": "minimal binding; also recorded: did not stain"}, {"measurement": "scFv binding/staining of cells", "setting": "[3]", "result": "strong staining; also recorded: stained"}, {"measurement": "scFv binding/staining of cells", "setting": "A431 cells", "result": "stained"}, {"measurement": "Kd", "setting": "[4]; 74 scFv/liposome", "result": 1.75, "unit": "nM"}, {"measurement": "Kd", "setting": "[4]; 148 scFv/liposome", "result": 0.36, "unit": "nM"}]}
